From article PMC9998502, “Functional selectivity of EM-2 analogs at the mu-opioid receptor” (Frontiers in Pharmacology, 2023) come the findings set out here.

To fix the notation:
B1: EM-2 analog 11 (Dmt-Pro-(R)-β2-1-Nal-Phe-NH2) (peptide)
chain: [Dmt]P[(R)β21Nal]F-NH2
modifications: N-terminus assumed
SMILES: Cc1cc(O)cc(C)c1C[C@H](N)C(=O)N1CCC[C@H]1C(=O)NC[C@@H](Cc1cccc2ccccc12)C(=O)N[C@@H](Cc1ccccc1)C(N)=O
B2: EM-2 analog 13 (Dmt-Pro-(R)-β3-1-Nal-Phe-NH2) (peptide)
chain: [Dmt]P[(R)β31Nal]F-NH2
modifications: N-terminus assumed
SMILES: Cc1cc(O)cc(C)c1C[C@H](N)C(=O)N1CCC[C@H]1C(=O)N[C@@H](CC(=O)N[C@@H](Cc1ccccc1)C(N)=O)Cc1cccc2ccccc12
B3: EM-2 analog 10 (Tyr-Pro-(R)-β2-1-Nal-Phe-NH2) (peptide)
chain: YP[(R)β21Nal]F-NH2
modifications: N-terminus assumed
SMILES: NC(=O)[C@H](Cc1ccccc1)NC(=O)[C@@H](CNC(=O)[C@@H]1CCCN1C(=O)[C@@H](N)Cc1ccc(O)cc1)Cc1cccc2ccccc12
B4: EM-2 analog 12 (Tyr-Pro-(R)-β3-1-Nal-Phe-NH2) (peptide)
chain: YP[(R)β31Nal]F-NH2
modifications: N-terminus assumed
SMILES: NC(=O)[C@H](Cc1ccccc1)NC(=O)C[C@@H](Cc1cccc2ccccc12)NC(=O)[C@@H]1CCCN1C(=O)[C@@H](N)Cc1ccc(O)cc1

Starred links: 1 amine or outer side, 2 acyl side, 3 side chain; linkers in the order of their positions; H or OH if unused. Non-standard residues stand in square brackets, D forms with d. No end group written: not given here. (R)β21Nal = (R)-β2-1-naphthylalanine, O=C([C@@H](CN[*:1])Cc1cccc2ccccc12)[*:2]; (R)β31Nal = (R)-β3-1-naphthylalanine, O=C(C[C@@H](Cc1cccc2ccccc12)N[*:1])[*:2]; Dmt = Cc1cc(O)cc(C)c1C[C@H](N)C(=O)O

One assay deals with T1, human mu opioid receptor (human, UniProt P35372 1-400). The assay can be described thus: cell-based or functional assay.
T1 sequence (P35372 whole entry): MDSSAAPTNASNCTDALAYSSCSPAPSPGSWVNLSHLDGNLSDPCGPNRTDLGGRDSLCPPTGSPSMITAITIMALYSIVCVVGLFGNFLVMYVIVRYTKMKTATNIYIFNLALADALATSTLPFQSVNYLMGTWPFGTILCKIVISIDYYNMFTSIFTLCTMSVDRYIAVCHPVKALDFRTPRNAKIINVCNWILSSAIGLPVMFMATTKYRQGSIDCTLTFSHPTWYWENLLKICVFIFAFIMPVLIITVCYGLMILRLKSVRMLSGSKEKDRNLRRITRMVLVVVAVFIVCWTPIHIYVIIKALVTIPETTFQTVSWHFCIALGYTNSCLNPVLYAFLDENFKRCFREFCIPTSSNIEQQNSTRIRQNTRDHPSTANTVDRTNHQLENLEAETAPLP
Settings: not given
On to B1, for which the “calcium mobilization, CHO cells with human mu receptor and Gαqi5: α (Emax ratio to the standard agonist)” value came to 0.57.
For B2, the “calcium mobilization, CHO cells with human mu receptor and Gαqi5: α (Emax ratio to the standard agonist)” value stood at 0.77.
With B3, the “calcium mobilization, CHO cells with human mu receptor and Gαqi5: α (Emax ratio to the standard agonist)” value is 0.25.
Consider B4, for which the “calcium mobilization, CHO cells with human mu receptor and Gαqi5: α (Emax ratio to the standard agonist)” value came out at 0.97.

The target of another assay is T2, human delta opioid receptor (human, UniProt P41143 1-372).
T2 construct: delta opioid receptor, human recombinant, in membranes of transfected CHO cells; also called delta receptor; source: commercial membranes of CHO cells transfected with human recombinant opioid receptors
T2 sequence (P41143 whole entry, stated change not applied): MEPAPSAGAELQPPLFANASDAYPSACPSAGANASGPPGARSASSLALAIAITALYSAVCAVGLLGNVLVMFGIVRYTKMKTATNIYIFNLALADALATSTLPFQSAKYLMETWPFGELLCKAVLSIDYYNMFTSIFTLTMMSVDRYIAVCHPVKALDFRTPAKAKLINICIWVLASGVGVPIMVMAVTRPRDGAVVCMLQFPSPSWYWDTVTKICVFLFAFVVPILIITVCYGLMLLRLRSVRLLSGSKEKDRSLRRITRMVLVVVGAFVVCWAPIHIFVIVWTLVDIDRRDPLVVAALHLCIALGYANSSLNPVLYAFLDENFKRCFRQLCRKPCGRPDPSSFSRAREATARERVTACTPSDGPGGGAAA
Description: radioligand binding; displacement of [3H]deltorphin-2 from commercial membranes of CHO cells transfected with the human recombinant delta opioid receptor; Ki, mean ± SEM, n ≥ 3. The settings on record: one partner purified.
Take B1: the Ki was 675 nM.
As to B2, the inhibition constant (Ki) was found to be 722 nM.
Same read-out and setting: the value for B3 was over 1000 nM; that for B4 was over 1000 nM.

In another assay the target is T3, human kappa opioid receptor (human, UniProt P41145 1-380).
T3 construct: kappa opioid receptor, human recombinant, in membranes of transfected CHO cells; also called kappa receptor; source: commercial membranes of CHO cells transfected with human recombinant opioid receptors
T3 sequence (P41145 whole entry): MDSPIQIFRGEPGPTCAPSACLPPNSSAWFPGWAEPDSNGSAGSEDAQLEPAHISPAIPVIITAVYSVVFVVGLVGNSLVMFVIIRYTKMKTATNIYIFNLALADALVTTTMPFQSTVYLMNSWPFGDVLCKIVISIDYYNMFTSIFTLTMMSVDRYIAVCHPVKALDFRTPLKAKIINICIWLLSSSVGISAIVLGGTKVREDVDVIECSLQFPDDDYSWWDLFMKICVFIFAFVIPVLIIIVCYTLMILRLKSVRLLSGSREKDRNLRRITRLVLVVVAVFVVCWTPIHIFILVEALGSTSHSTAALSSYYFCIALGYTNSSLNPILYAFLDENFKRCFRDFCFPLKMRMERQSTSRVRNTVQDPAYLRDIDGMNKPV
The assay can be described thus: radioligand binding; displacement of [3H]U-69593 from commercial membranes of CHO cells transfected with the human recombinant kappa opioid receptor; Ki, mean ± SEM, n ≥ 3. The settings on record: one partner purified.
With B1, the inhibition constant (Ki) was over 1000 nM.
As for B2, the Ki was 915 nM.
As for B3, the Ki was over 1000 nM.
In the case of B4, the Ki was over 1000 nM.

The next assay addresses T1, human mu opioid receptor. Description: radioligand binding; displacement of [3H]DAMGO from commercial membranes of CHO cells transfected with the human recombinant mu opioid receptor; Ki, mean ± SEM, n ≥ 3. The following applies: one partner purified.
In the case of B1, the Ki amounted to 9.54 nM.
For B2, the Ki came out at 2.75 nM.
For B3, the Ki is 34.9 nM.
Regarding B4, the Ki stood at 32.1 nM.
